Assay results: US10494423B2, “Maytansinoid derivatives with peptide linker and conjugates thereof” (priority 2011, dated 2019)

Biological target: T1, cathepsin B (Bos taurus, UniProt P07688)
T1 construct: cathepsin B (bovine spleen; EMD Biosciences); purchased EMD Biosciences; host or cells: bovine spleen (tissue-derived enzyme)
Experiment: In vitro cleavage of conjugate by cathepsin B
Type: biochemical, bovine
Conditions: 4.6 μM conjugate, 0.9 μM cathepsin B, pH 6.0, 37° C., 0-26 h
Procedure: huC242-3b conjugate (4.6 μM) was incubated with 0.9 μM cathepsin B (bovine spleen; EMD Biosciences) in pH 6.0 buffer containing 0.6 mM CaCl2/MgCl2 and 2 mM DTT (dithiothreitol) at 37° C. 100 μl aliquots were taken at various time points (0, 1, 3, 8, 17, and 26 h) and free maytansinoids were quantified using a mixed-mode chromatography method (Fleming, et al, Analytical Biochemistry, 2005, 340, 272). Briefly, a HISEP shielded hydrophobic phase column (5 μm particle size, 4.6×250 mm length, Supelco, Bellefonte, Pa., USA) was used for analyzing Ab-DM1 conjugates. Detection was at 252 and 280 nm (extracted from PDA spectra). The flow rate was 0.7 ml/min. Mobile phase A consisted of 100 mM ammonium acetate (pH 7.0). Mobile phase B was 100% acetonitrile. The column was equilibrated at 25% B followed by a linear gradient over 25 min to 40% B after sample injection. […] Synthesized compound 5 had the same retention time and mass spectrum as this metabolite.

B1: huC242-3b: huC242 antibody conjugated via SMCC linker to compound 2; 3.3 maytansinoids per antibody (conjugate, chains of the INN, looked up)
VH: QVQLVQSGAEVKKPGETVKISCKASDYTFTYYGMNWVKQAPGQGLKWMGWIDTTTGEPTYAQKFQGRIAFSLETSASTAYLQIKSLKSEDTATYFCARRGPYNWYFDVWGQGTTVTVSS
VL: DIVMTQSPLSVPVTPGEPVSISCRSSKSLLHSNGNTYLYWFLQRPGQSPQLLIYRMSNLVSGVPDRFSGSGSGTAFTLRISRVEAEDVGVYYCLQHLEYPFTFGPGTKLELK
modifications: SMCC-linked maytansinoid compound 2, DAR 3.3
notes: huC242 antibody conjugated via SMCC linker to compound 2; 3.3 maytansinoids per antibody
  released metabolite on cathepsin B cleavage: sole released metabolite 5 was detected
